We go through five molecules from article PMC10244698, “Polypyrimidine tract binding protein 1 (PTBP1) contains a novel regulatory sequence, the rBH3, that binds the prosurvival protein MCL1” (The Journal of Biological Chemistry, 2023).

The labels stand for the following.
B3: myeloid cell leukemia-1 (MCL1), residues 163-326 (domain or fragment, human, UniProt Q07820 163-326, looked up)
chain: TPPPAEEEEDELYRQSLEIISRYLREQATGAKDTKPMGRSGATSRKALETLRRVGDGVQRNHETAFQGMLRKLDIKNEDDVKSLSRVMIHVFSDGVTNWGRIVTLISFGAFVAKHLKTINQESCIEPLAESITDVLVRTKRDWLVKQRGWDGFVEFFHVEDLEG
notes: human MCL1, UniProt Q07820, residues 163-326, cloned into pET28a; also called recombinant MCL1; source: E. coli BL21 (DE3), purified (nickel chromatography, gel filtration)
B5: RNA recognition motif 1 (RRM1) of polypyrimidine tract binding protein 1 (PTBP1), residues 55-147 (domain or fragment, human, UniProt P26599 55-147, looked up)
chain: GVPSRVIHIRKLPIDVTEGEVISLGLPFGKVTNLLMLKGKNQAFIEMNTEEAANTMVNYYTSVTPVLRGQPIYIQFSNHKELKTDSSPNQARA
notes: human PTBP1 RRM1, UniProt P26599, residues 55-147, cloned into pET28a; 15N-labelled for the NMR experiment; also called PTBP1-RRM1; recombinant wildtype RRM1 protein; source: E. coli BL21 (DE3), purified (nickel chromatography, gel filtration)

Data set [1] addresses B3. Kind of data set: fluorescence polarisation; direct FPA: 10 nM FITC-RRM1_(rBH3) peptide, recombinant MCL1 titrated; 1x PBS pH 7.4, 1% DMSO. Particulars: both partners purified. (In fluorescence polarisation assays a small probe gives low polarisation when free and higher when bound to something large.)
For a further data set, the target named is PTBP1 RRM1 (human, UniProt P26599 55-147). The experiment in a line: fluorescence polarization; tRNA background; 0.5 nM RNA; FP: 1x PBS pH 7.4, 1% DMSO, tRNA background, temperature not stated; EMSA: 10 mM Hepes pH 7.3, 20 mM KCl, 1 mM MgCl2, 1 mM DTT, tRNA (10 ug/ml in Methods, 10 ug/uL in Fig S2 legend), room temperature, 1% TBE agarose. Conditions: protein: recombinant; tags: N-terminal His6 (pET28a); label: 3' FTSC (fluorescein-5-thiosemicarbazide); single-stranded, designed as unstructured.

The target in data set [2] is B5. The experiment in a line: fluorescence polarisation; competitive FPA: 50 nM RRM1, 0.5 nM FTSC-labeled RNA from the 3'UTR of MCL1 mRNA, MCL1 titrated; 1x PBS pH 7.4, 1% DMSO, background of tRNA. Conditions: both partners purified.
Data set [3] deals with B3. The experiment in a line: fluorescence polarisation; competitive FPA: 100 nM MCL1, 10 nM FITC-BAK BH3 peptide, unlabeled RRM1 titrated; 1x PBS pH 7.4, 0.1% DMSO. Conditions: both partners purified.

Ends that are not written are not given here. * marks the point of attachment. FITC = O=C1OC2(c3ccc(O)cc3Oc3cc(O)ccc32)c2ccc(NC(=S)*)cc21; Ahx = NCCCCCC(=O)O

B1: FITC-labeled peptide containing the RRM1 rBH3 sequence (peptide)
peptide: {FITC-Ahx}-NTEEAANTMVNYYTSVTPVLRGQ
notes: stretch of PTBP1 RRM1 with the rBH3 motif (E104-Y114) on the alpha2 helix; also called F-RRM1_(rBH3); FITC-RRM1_(rBH3); source: synthetic peptide (GenScript)
For the molecule B1, the Kd in data set [1] was less than 10 nM.

B2: MCL1 3'UTR 25-mer RNA (ssRNA)
RNA: ACGCUUCUCUCAGGGAAAAACAUGC
B2: the Kd in the data set with PTBP1 RRM1 amounted to 16.1 ± 7.6 nM.
Regarding B3, the IC50 in data set [2] stood at 74.6 ± 37.3 nM.

B4: FITC-labeled BAK peptide derived from its BH3 sequence (peptide)
peptide: {FITC-Ahx}-GQVGRQLAIIGDDINRRYD
notes: also called F-BAKBH3; FITC-BAK; source: synthetic peptide
For the molecule B4, the binding result in data set [3] is “binds”.
Turning to B5, in data set [3], the IC50 turned out to be 88 ± 3 nM.

For orientation: Kd means the concentration at which binding is half-saturated. As a reminder, the IC50 is the concentration that inhibits the measured activity by half. Low readings indicate greater potency, high ones weaker potency.
